The results in this text go back to paper PMC10287707.

One series concerns the target T1, TIA1 RRM2_3 (human, UniProt P31483-2 93-274).
T1 sequence: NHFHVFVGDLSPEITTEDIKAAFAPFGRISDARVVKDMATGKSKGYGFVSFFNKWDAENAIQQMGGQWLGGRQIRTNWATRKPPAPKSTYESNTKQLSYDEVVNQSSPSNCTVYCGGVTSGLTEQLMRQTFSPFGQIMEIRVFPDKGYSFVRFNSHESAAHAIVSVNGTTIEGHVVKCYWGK
Nature of the series: EMSA; EMSA: 10 mM sodium phosphate pH 6.5, 50 mM NaCl, 1 mM DTT, 1 U/ul SUPERase-In, room temperature 20 min, native 1.2% agarose; RNA annealed in 10 mM Tris-HCl pH 7.5, 100 mM KCl. Conditions: protein: recombinant, tags: His6-SUMO removed by SUMO protease, label: 5'-Cy3. Background: A gel shift assay detects complexes by their altered migration in electrophoresis.

Another series has as its target T2, TIA1 RRM1-3 (human, UniProt P31483-2 1-274).
T2 sequence: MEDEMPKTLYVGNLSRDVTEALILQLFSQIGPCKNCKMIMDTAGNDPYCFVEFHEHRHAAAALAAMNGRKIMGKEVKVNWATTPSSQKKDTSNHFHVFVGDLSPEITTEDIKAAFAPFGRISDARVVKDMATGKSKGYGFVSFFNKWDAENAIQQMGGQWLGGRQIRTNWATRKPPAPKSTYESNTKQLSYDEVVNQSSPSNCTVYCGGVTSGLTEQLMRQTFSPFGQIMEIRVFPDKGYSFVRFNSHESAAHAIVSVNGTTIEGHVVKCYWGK
Described as above. The following applies: protein: recombinant; tags: His6-SUMO, removed (same protocol as RRM2_3); label: 5'-Cy3; single strand.

In the case of UUUCGAUCUCUUGUAGAUC (structured_RNA) [SL2], the Kd with TIA1 RRM2_3 (hairpin, 5-nt loop) turned out to be 2470 ± 370 nM.
As to UGUUCUCUAAACGAACUUUAA (structured_RNA) [SL3], in the series with TIA1 RRM2_3, the Kd stood at 780 ± 90 nM.
Turning to UUUUUUUUUUU (ssRNA) [U11], the binding result with TIA1 RRM2_3 (single strand) and in the series with TIA1 RRM1-3 was “binds” in each case.
With UUUCGAUCUCUUGUAGAUCUGUUCUCUAAACGAACUUUAAAAUCU (structured_RNA) [SL2+SL3], in the series with TIA1 RRM2_3 (two hairpins), the Kd was determined as 430 ± 50 nM.
For UUUGAUUUUAACGAACUUAAA (structured_RNA) [MERS SL3], the Kd with TIA1 RRM2_3 turned out to be 300 ± 20 nM.
On the same count and under the same terms, with UCACUCUUGAACGAACUUAAA (structured_RNA) [RousettusHKU9 SL3] the figure was 410 ± 20 nM.

The term Kd denotes a measure of binding affinity in units of concentration.
